# Reference: the DeepSol protein solubility set
# Assay: soluble on expression in E. coli; label from the status in PepcDB or PDB records
row,Sequence,soluble on expression in E. coli
1,MAHHHHHHMSCITGITYLSSADINALSKGAGAGSSSGSRGTFVVREGDYVTGTITNVQGGSTPGIRLATSRGVTAFIAAVDICDEAMRVDLLEYIRRSEQLRDWNRHENGDARPPERAEAPVWLRRGALLQGTVSRCVWARCELHLQWCRPREELAGSGDDNGEKETAMPSYGNMERGGASSSVNSLNTAQVEQQVRVFATKMSRHPLFRDVSKNGAADMLRDKEIGESLLRPRTASVHRVVCEVKVGSNATNHWVISEERHANGQFYYKVEDRVVDRQWEFTDVDDFLCNFVEPMVKLIQSIRVHRRFEDSTEYVQAALDAQREVSGGFAYAFAETESKRHLYQVYSSGGNETYHFPLHITSEFIYIRLPFFHDGKASNKWVPCKSAEKVSETVKNYARAMSKRSVNGELH,soluble
2,MAHHHHHHMSDAAPGPAPAPVTAAVDAPPLPAPTKVKPPRKKPPRAEEANPRLLAPANGVAAQQQKQRDKEFATHKAHILTNLQTNACDLSPKGSLDAKCLPVMGVLNTHKDYVTTSSCSGRIALFHSIKHSEACGADDGTATPKPRMKRGENAALGWVFVKHGMLRPMEMAQVVGFLCGAPTTPEDVALDSAQMEKHAAHMASVSCSAHCHSAAPGSLLAEMYDGEVEGALVGARVSGDEVAALPVPTRGTVSLKMEPFVMHVQCRTMEAAKLLLSAVVSDSGFRNSGVVPPGKKIMCGIRSAAGLGLEVPVVVDGVNHVASQRAYVWALLGLANEKMEANEKKIKLLERSVAARVLPA,soluble
3,MAHHHHHHMSDKLEDIGEFVLVIGDFHSPMRNLGLPDCFKDLLKTDKIKHVLCTGNVGCNENLELLKNIADSVHITKGDMDNNFDFPEKINIKIGDFKISLVHGHQIIPWGDLNALLQWQKEYDSDIIISGHTHKNSINNFEGKYFINPGSATGAFQPWISNPTPSFILMAISKSSIVVYVYEEKNGKMNVEMSELRKQ,soluble
4,MAHHHHHHMSDLRRVESLNADTFRRLNATSVVKSFWHTQLRAATAASRGAKDDSLATANEETPVATRKLRSAASSAEKSAGGLTDSTVYSSSSSSSNSRLSVSATLPGFPSPTETRRRLRAAALSAERHRAEESDEEKPDPVARTLFQNFLLQEYDALDSRPVLTVVLDLDETLVSNRDSGATGAILRPYCLHMLNALRHMQGLEVVLWTASTKETAAPVIRQLSQSGPVFDDVICRNSSWFTEPLHTKDLRLLGRDMSRVIIFDNSTACCKLNPRNAVIVDDFRGVRNTSDAALVNVYYIIERSFNGCCAGVSVLETLVKLAVEKQLCMPEVLHLPESWRHIPLREIAPLKVPPHGIFFRAHSTPLNDSIMQHWTV,soluble
5,MAHHHHHHMSFKPKIIVCSSPAELSGVACKKIVDIIHASERTNWPLSIALSGGSTPKMLYSRLHEEHLHLLKEERALRFFFGDERLVPADAAESNYNMARQALLHDIPEDLVVPVDVGCVGEVSNVACNDAVKAADAYEKRIDLLLGTQKVEGMEAEIPVFDIVLLGLGSDGHTASIFHGSQAESEMHRAVSVGFPSPTMSPKVWRVTLTPITIIHARHVILLATGKEKKCVLNGIIADTPTEVPVSRFLRNCKGDVTFILDREIAENLTC,soluble
6,MAHHHHHHMSKKEAISTPRKSKKAEVVIEGCVTIGSKQLLPSALDESRREQLSKQFDDIIEAHVAIDGGIADPVAAKIKELPTLSVGFIARAMGLNLSNDQVLSLVEMVEERDTVSRGCVPVGPLKEIIVGALMSGVITRQDSVAPTSNRKKRHSVSENRPLMHVSRDSEELIYAAFRTLDVGNRGYMEAEELRHLFRSGLEPFTDEEMENMIAAAADPQNGLIFYEDFVDVLANE,soluble
7,MAHHHHHHMSLQAGGVVNGVIPGVVPPHDRTQEVCKYFVNGGCLRGANCPYLHELPDERHLDVNGLGFILNPNVHNAQKTVASPQTQVAASTPSQPLKASGSSFTMMLNNQNASQSRVFSPTKAAKHQPPSMSGSSSASPQTMQMGKLPAPPKYNPPEPYLELNLPPALAFPLKVPAKDTTATLTHLMLQN,not soluble
8,MAHHHHHHMSNQGDFNTYIYIPVKCNESIKKRCELCFDVLFKLIEMKHKECYNKSKEKNLLCHNDINKGEIHKHIYYQLYKLNEHIKENNIEKDFKEPLHITISGSLNLKRYMINSFINKIKEELKNQNSFYLFFRNEVDLYKSQKNTKYFCSYTVKEDQQELYLNTLKEKINKILNEFDLKDTHLNRIYHLSLAYTNINLDVLLEKENKKCVEEETFFWPNINELILNKDIKENRLDDLYIYVNCIHIRIGYKLYKIPFKSFDDNLNVSDSYDSYMSSTDE,not soluble
9,MAHHHHHHMSSPERGASPPPAEEDKKEKRVIIILEGAHLQLIETKRYIYELANSMKHKHLLRDKKKEEEIRNFRPDILHQCLIHLLESALNKYGLLQVYIKTHDNQLFFVSSNLKIPKTYDQFESLMVTFLRKYKIKANEKNLCLLKFLKNDYNAILPINGKKIGLSVKGRKVHLPDYVQNFQNENMPVTFFIGAVAYSNPITKLENLDDNISISEFSLSAATCCSTICSEFENLWGVF,soluble
10,MAHHHHHHMSSSAVPAYEGKQKVYALLNGTFHAAIVLEVAEDATEGGFLYYVRYVEQDSRLDQWLQASDIKERHQGRTHHGSSCTHQQYTPSGIKTRRQSHVTEQQNAETAVLTGEGVGMPTEVSANAKGGGAAPHLVKVSKTRARRDSAFFSRTKNIYSICMGPHEVETWYFSPYHLARPEVQQRLQAASQCVTGSTELQLVQSTTSPGGTSGVSTGIADVGGGAGGTGNVSVGAGGSGRGSGAGMRQWPIATRSFSLHICPYCLRPFLDNAAVVRHLQQDCLRHPPGNEIYRDPVRRLVVLELDGSLEPTFCEHLALLSKLFLEHKALDHDMTPFLFYVLCSVETHGLQVLGYFSKEKQTPEPYNLSCILVLPQYQSRGIGRFLIELSYELSRREGKVGTPEKPLSDLGEKLYLSYWADSVTMAIARAMEEGHCVSVDYLVQATAMIQADVIRALQHQKLLNGHQLTISEDIVERCYTKRLTKERDITSYTFYTHLLSWAPGFYEEFRGVPPAPTFVPWRDPSAPHSRTGG,not soluble
11,MAHHHHHHMSSSDGQGMRAVILVGGFGTRLRPLTLTTPKPLVPFCNKPMIIHQIEALKAVGVTEVILAVAYRPEAMKEQMDEWSRKLGVLFVFSVEEEPLGTAGPLALARDILMQDDKPFFVLNSDVTCPFPMQELLDFHKAHGGEGTIMVSQVTQWEKYGVVVYSPQNYQIERFVEKPSSFLGDRINAGIYIFNKSILDRIPPCRTSIEKEIFPSMAAEGQLYAFNLEGFWMDIGQPKDYILGMTKYIPFLVHSNRETEKLHTEATKHQRGGRFTVIGASLIDPSAKIGDGAVIGPYASIGANCVIGESCRIDNAAILENSKVGKGSMVSRSIVGWNNRIGSWCHIKDISVLGDDVEVEDGVVLIGTKVLPNKDVGEHHFEPGIIM,soluble
12,MAHHHHHHMSSVLKADVKEYIPSWANKRSSGVNPAATSTNKNGFATSVPTSNVMTTHSGCTGINAQNFTSSPRAAAGLPLCSPTTALRLPTRMSPMHAPFPSVSISMNPNATDFVPHLTGANSLAPLPTSTADLAEEKERQQKQESHLSSSMKWTTTSTRKNITQPALPLAVKANFTPTFAPIYVEKTEEEILEISKRSSLKVGAAAFVPRRTLNRVMIAKPSPFSLTPATGEMTLGDLWCLFYLPAGLGECIRENTYDPTLVFRVDSVATFWKVFNNIPQPTEMKIGTLYFFRDGINPKWEDPGNRDGGILKMKLDSHCINDAWVYLLCRTIGESWSKSVRDTVNGVALKARERAYLLEVWVTEQSAELMMDISELLRPLLGDVFSVFYAPHSVTQERAAAAALAEKKRSRNNRRRW,not soluble
13,MAHHHHHHMSTEEQQVTQGTAHAPAPTTVKNKANSYYYWHQHEKDRAKVGDVAPMPTPYLVSKDDARAMAAPAVPTVSVSKYSWCDGDKFVSVYIDTVVPEGGTLDESSIEATFTGNSFKVTFATADEAGRTRAKSLSIRLSKRIDKDRSSTKVKPKTQQILVRLAKKVESVWLDLEGEASDQDSAADSEAADAE,soluble
14,MAHHHHHHMSVSVTEHRHGDMHHGTMRRRCLTRVLLAGPQGDLEALVSRMPRTWSLQQPLEMLQPEAVEEERANTASAAAATRTENAGLAGGKVPDKSAASVMISYSPVRATLPLAAAASEEERAEEDVVDVVAAVEEKAAMKADLHNSSGSAVEPPSLEGTPNVRLHAAQAPHEEQQEEGDCGVVVAHEAPALTEDGIPGADSAVVRAAEVAATLDIGSQLAEAAPCADRASLDSSAALPVSQVPE,not soluble
15,MAHHHHHHMTEGPLIVVGSVTLDQAARCYSPLSAPLRVRLEYAVLRPVVNPAWAATFEADIAYGRISVPLVQPTACSECMTPLNVPSSFLQHTPSDSIATLQPGELYQLDVHLETMELSKVEEKYVLQVGMLRLILLSGKTELADVNHVVQVKKNDDGELMRLIMNPLV,not soluble
16,MAHHHHHHMTSPALAPPQNTAEFWIKRLQLVPHPEGGYYSEVVRSAHKVDNEEGNRRHAYTTIYFLCTPESPSHLHRLCSDETWMYHAGDPLQLHVILKDPQDEDRIAAQPPAAPQAETDTADARPKYQVYRRVLVGARVERGELLQYTVPGGAIFGSSVAADGADGQAGYSLVSCIVSPGFDYRDFEIFTQAQLMELYPQHEAVIKQMAYETLPNHARLQTTEI,soluble
17,MAHHHHHHMTSVLAVVNARRVWRGASVLQPAVSSSYPPEVDALLVEGGRISFIGSTAEVQQRYGALVAAQPVDAAAAAPQPVEGGRPRTVSHRVIDCEHRHAVYPGFIDSHVHFLDGGRMLLAPQLGFATSRTQFTAIVRDFVEHRYNREEGGWVYGVGWSEAVLGCSPTREWLDEVSTKIHLVMYSKDIHSAVMNTAALRSCHIIPGAEDGEPLITSVEGGVIELNENGQPSGVLRDNAIQLAKRYAPAADTPANQRRALEAATEHLLSLGFTSVFSMMSTTYMDNVSEINFLAQMEREGAMRLRVRYGVPLSDVERLMDKFYRVMATDAAQSGRSDDFTLPYRFTMTPPAAGGGYLLLGAVKLFADGSLSSRTAAMNRPYGYNVTTEGDIDSDLDDAAISALLKERSGKQCQCGLLTMSRLELQCAIRVAHSHDLQCVVHAIGDRAVATVNRALCASADWLRERGAEAGVVAAVARFRADPRSRVEHCQHMSSMTKEVKRMAQYGIIASMQPCHLLFDGDYVDTLLGQRRKDTSYMWGTLLAAKIRVDLGSDWPVAPADVNDGLRGAVTRVPDVMTALAAEEAQYRSQQQAQPSADNTAACAATALRRYHDTWNPAECISMDAALRTYTYEGAHGMFMENYLGTLEVGKYADITVWTADWLDDAEMEQMAGVEGANARWWPRHREPHVAYTIVGGVVEYDRSH,not soluble
18,MAHHHHHHMVDYGEGGKNGSLDTVRQTLVCATRILMLAVSCKKVQLIYTLLPFMALIFKELLVSDDEERLRALFSDAKGQCALAGLRRSTANLSLLLDTEQDFTTLSSPWSFSYDTSEVGMKEIRSLTTFLVSGDSGLSEALEYVTTDCLRSGRLLTLYEIVRGFSLSPYGMMELKLDEVRDPHCGVSSHGEGSSVRGHFPHLPTHGELFLNLFTGIHEEFSLTRSPRCVGNELRRHRSSVVGAEVATTDFTLWTLAQSILYSTPGLPETLRHLRDHFAMWDECVLAINIILMCFTDVVHQLRRHSELVQALQHLLVDERNCGYKSFIRYCLENVS,not soluble
19,MAHHHHHHMVQRTLLDFVRKKDPSPNVINVDAESDEQDEAASRKRRMQGVREPALAFTKPRTENKDDICCSNNFSALITDSGWRAFLQPLTSTTNFRNIEQFIEGEKTKGKVILPPSDLIFSAFNSTPLDRLKVVLLGQDPYHNIGQAHGLCFSVLPGVRPPPSLLNMYKELTTDISGFKSPPHGYLQCWAEQGVLMLNATLTVEAHQANSHAKCGWQAFTDGVIRLLSEKHQRPIVFLLWGGFARKKITLIDQKRHLVIENAHPSPLSAAKWWGSRPFSKCNAALTQLGHSPIDWSIPMSVERRH,not soluble
